Reference: patent US20190055312A1 (CELL MEDICA, published 2019)
Several values for one entry are separate records, joined by “and”; a condition that tells them apart may be missing. Identical values can stand only once. One block for each binder: values may come before it.

Experiments:
[1] = target: T1, recombinant human (rh) PD-L1 Fc fusion (RnD Systems, USA, cat. no. 156-B7) (human, UniProt Q9NZQ7 19-239); assay: competition ELISA, rhPD-L1 Fc fusion coated, displacement of biotinylated PD-1 Fc fusion
T1 construct: Bought reagent; also called human PD-L1 Fc fusion; not shown: Fc part of the bought fusion
T1 sequence (Q9NZQ7 19-239 limits assumed): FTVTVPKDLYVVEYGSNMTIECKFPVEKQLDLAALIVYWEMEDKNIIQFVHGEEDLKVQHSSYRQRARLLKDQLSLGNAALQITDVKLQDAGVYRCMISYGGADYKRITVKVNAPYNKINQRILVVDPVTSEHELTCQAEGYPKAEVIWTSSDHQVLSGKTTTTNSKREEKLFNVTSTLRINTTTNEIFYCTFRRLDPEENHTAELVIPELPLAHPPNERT
Experimental: Plates were blocked with 1% BSA and 0.05% Tween-20 in PBS, pH7.4. A serial dilution of IgGs was prepared, with eleven 1:3 dilutions starting at 1 mcg/mL, and added to plates. […] The ELISA was developed with TMB ELISA substrate solution (eBioscience, USA, cat. no. 00-4201-56).

[2] = target: T2, human PD-L1-His (BioVision, USA, cat. no. 7429) (human, UniProt Q9NZQ7 19-238, limits assumed); assay: ratio of KinExA KD values (scFv1 on PD-L1 Fc fusion as reference)
T2 construct: Bought reagent without Fc tag, chosen to avoid avidity; also called His tagged PD-L1; not shown: His tag
T2 sequence (Q9NZQ7 19-238 limits assumed): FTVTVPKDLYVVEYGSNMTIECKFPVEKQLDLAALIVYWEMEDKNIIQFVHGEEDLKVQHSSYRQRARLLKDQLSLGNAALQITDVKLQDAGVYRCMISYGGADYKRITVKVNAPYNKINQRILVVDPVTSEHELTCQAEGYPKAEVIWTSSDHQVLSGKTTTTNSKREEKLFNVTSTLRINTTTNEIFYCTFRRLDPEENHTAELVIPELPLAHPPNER

[3] = target: T2, human PD-L1-His (BioVision, USA, cat. …); assay: KinExA in solution, human PD-L1-His titrated against constant IgG, n-curve analysis
Experimental: All steps were carried out at room temperature. […] This voltage signal is used to calculate the KD value and activity of the scFv using the “n-curve analysis” of the KinExA® Pro software version 4.1.9 or 4.2.10 (FIG. 5) using the option “titrant as analysis concentration reference”.
These mixtures were incubated for 5 hours.

[4] = target: T3, rat PD-L1 Fc fusion (Sino Biological, China, cat. no. 80450-R02H) (Rattus norvegicus (Norway rat), UniProt D4AE25 19-239); assay: binding ELISA: coated rat PD-L1 Fc fusion, detected with Protein L-HRP
T3 construct: Bought reagent; not shown: Fc part (and any linker) of the bought Sino Biological 80450-R02H fusion
T3 sequence (D4AE25 entry or part of it R02H R02H limits assumed): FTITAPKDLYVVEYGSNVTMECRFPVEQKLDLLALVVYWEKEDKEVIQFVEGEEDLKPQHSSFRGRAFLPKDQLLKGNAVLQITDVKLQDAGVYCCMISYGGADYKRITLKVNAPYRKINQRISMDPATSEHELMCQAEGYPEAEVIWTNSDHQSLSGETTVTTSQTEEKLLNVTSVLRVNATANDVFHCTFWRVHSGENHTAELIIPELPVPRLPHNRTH
Experimental: Plates were blocked with 1% BSA and 0.5% Tween-20 in PBS, pH7.2. A serial dilution of scFvs was prepared with concentrations of 1 mcg/mL, 333 ng/mL and 111 ng/mL and added to plates. […] Development was with TMB ELISA substrate solution (eBioscience, USA, cat. no. 00-4201-56).

[5] = target: T1, recombinant human (rh) PD-L1 Fc fusion …; assay: binding ELISA: coated rhPD-L1 Fc fusion, scFv1 in PBS without incubation, detected with Protein L-HRP
Experimental: (§1) After blocking with PBS, pH7.4 with, 1% BSA and 0.05% Tween-20, a series of 1:3 dilutions of 2.5 mcg/ml to 42 ng/mL serum/scFv samples was added to the ELISA plates in duplicate. […] The ELISA was developed with TMB ELISA substrate solution (eBioscience, USA, cat. no. 00-4201-56).

[6] = target: T1, recombinant human (rh) PD-L1 Fc fusion …; assay: competition ELISA: coated rhCD80-His, scFv titrated against constant 50 nM rhPD-L1 Fc fusion, bound PD-L1 Fc detected with anti-human IgG Fc-HRP
Experimental: Plates were blocked with 1% BSA and 0.05% Tween-20 in PBS, pH7.4. […] This mixture was incubated with the CD80 coated plates for 2 hours at room temperature. […] The ELISA was developed with TMB ELISA substrate solution (eBioscience, USA, cat. no. 00-4201-56).

[7] = target: monkey PD-L1 Fc fusion (Sino Biological, China, cat. no. 90251-C02H) (Rhesus macacque (Macaca mulatta)) (UniProt F6PJN1); assay: KinExA in solution, room temperature, monkey PD-L1 Fc fusion titrated against constant scFv1, n-curve analysis
[8] = target: T4, rhB7-H3 Fc fusion (RnD Systems, USA, cat. no. 1027-B3) (human, UniProt Q5ZPR3-2 29-245, limits assumed); assay: binding ELISA, rhB7-H3 Fc fusion coated, Protein L-HRP detection
T4 construct: Bought reagent; also called human B7-H3; not shown: Fc part of the bought fusion
T4 sequence (looked up): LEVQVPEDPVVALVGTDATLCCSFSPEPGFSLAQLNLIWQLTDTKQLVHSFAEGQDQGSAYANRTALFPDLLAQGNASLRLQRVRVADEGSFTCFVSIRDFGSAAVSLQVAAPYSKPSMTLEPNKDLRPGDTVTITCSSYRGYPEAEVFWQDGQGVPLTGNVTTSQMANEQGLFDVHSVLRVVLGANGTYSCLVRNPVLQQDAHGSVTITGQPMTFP
Experimental: (§2) Plates were blocked with 1% BSA and 0.5% Tween-20 in PBS, pH7.2. A serial dilution of scFvs was prepared with concentrations of 5, 1 and 0.2 mcg/mL and added to plates.

[9] = target: T5, mouse PD-L1 Fc fusion (Sino Biological, China, cat. no. 50010-M03H or RnD Systems, USA, cat. no. 1019-B7-100) (Mus musculus, UniProt Q9EP73 19-238); assay: binding ELISA, mouse PD-L1 Fc fusion coated, Protein L-HRP detection
T5 construct: Two bought reagents were used; not shown: Fc part of the bought fusion
T5 sequence (Q9EP73 19-238 limits assumed, stated change not applied): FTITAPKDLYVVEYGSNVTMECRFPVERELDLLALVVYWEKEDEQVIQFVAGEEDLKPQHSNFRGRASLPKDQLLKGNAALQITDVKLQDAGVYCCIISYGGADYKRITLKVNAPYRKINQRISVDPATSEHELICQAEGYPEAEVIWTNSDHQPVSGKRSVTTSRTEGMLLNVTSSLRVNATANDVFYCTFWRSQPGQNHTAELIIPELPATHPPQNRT

[10] = target: T6, rhPD-L2 Fc fusion (RnD Systems, USA, cat. no. 1224-PL) (human, UniProt Q9BQ51 20-219); assay: binding ELISA, rhPD-L2 Fc fusion coated, Protein L-HRP detection
T6 construct: Bought reagent; also called human PD-L2; not shown: Fc part of the bought fusion
T6 sequence (looked up): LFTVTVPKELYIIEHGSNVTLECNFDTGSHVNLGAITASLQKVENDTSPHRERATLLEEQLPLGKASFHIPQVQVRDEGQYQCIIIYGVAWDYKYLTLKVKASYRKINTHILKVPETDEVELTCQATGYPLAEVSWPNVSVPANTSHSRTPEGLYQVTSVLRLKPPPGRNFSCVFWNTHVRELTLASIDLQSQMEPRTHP
Experimental: as §2

[11] = target: T1, recombinant human (rh) PD-L1 Fc fusion …; assay: binding ELISA: coated rhPD-L1 Fc fusion, scFv1 in human serum, 0 h at 37 C, detected with Protein L-HRP
Experimental: as §1

[12] = target: T7, natural form of PD-L1 expressed on the surface of ES-2 cells (human, UniProt Q9NZQ7 19-290); assay: KinExA, ES-2 cells titrated against 50 pM scFv1, room temperature
T7 construct: whole, on cells; also called cell surface PD-L1; human natural form of PD-L1
T7 sequence (Q9NZQ7 19-290): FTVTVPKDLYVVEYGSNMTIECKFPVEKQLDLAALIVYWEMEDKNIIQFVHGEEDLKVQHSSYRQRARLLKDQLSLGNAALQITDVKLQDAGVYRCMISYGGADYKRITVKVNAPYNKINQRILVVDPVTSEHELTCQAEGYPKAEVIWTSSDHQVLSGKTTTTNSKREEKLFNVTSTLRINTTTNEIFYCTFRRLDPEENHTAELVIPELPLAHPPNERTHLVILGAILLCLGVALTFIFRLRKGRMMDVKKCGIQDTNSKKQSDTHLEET
Experimental: (§3) Duplicate measurements were prepared for each data point. […] These mixtures were incubated for 5 hours. […] These mixtures were incubated for 9 hours. […] All steps were carried out at room temperature. […] This voltage signal is used to calculate the KD value and activity of the scFv using the “n-curve analysis” of the KinExA® Pro software version 4.1.9 or 4.2.10 (FIG. 5) using the option “titrant as analysis concentration reference”.
These mixtures were incubated for 5 hours, centrifuged for 10 minutes at 3800×g, and supernatants were transferred to fresh tubes. […] All steps were carried out at room temperature.

[13] = target: T1, recombinant human (rh) PD-L1 Fc fusion …; assay: KinExA in solution, room temperature, PD-L1 Fc fusion titrated against constant scFv1, n-curve analysis
Experimental: as §3

[14] = target: T1, recombinant human (rh) PD-L1 Fc fusion …; assay: competition ELISA: coated rhPD-L1 Fc fusion, scFv titrated, bound biotinylated PD-1 Fc fusion (15 ng/mL) detected with streptavidin-HRP
Experimental: Plates were blocked with 1% BSA and 0.05% Tween-20 in PBS, pH7.2. A serial dilution of scFvs was prepared, with eleven 1:3 dilutions starting at 1 mcg/mL, and added to plates. […] Background level was determined in the absence of PD-1. The ELISA was developed with TMB ELISA substrate solution (eBioscience, USA, cat. no. 00-4201-56).

[15] = target: T1, recombinant human (rh) PD-L1 Fc fusion …; assay: binding ELISA: coated rhPD-L1 Fc fusion, scFv1 in human serum, 20 h at 37 C, detected with Protein L-HRP
Experimental: as §1

[16] = target: PD-L1 expressing CHO cells (Promega, CS187103) (human, UniProt Q9NZQ7 19-290); assay: cell-based or functional assay
Chain of PD-L1 expressing CHO cells (Promega, CS187103) (Q9NZQ7 19-290): as above

[17] = target: monkey PD-L1 Fc fusion (Sino Biological, China, cat. no. 90251-C02H) (Rhesus macacque (Macaca mulatta)) (UniProt F6PJN1); assay: ratio of KinExA KD values (human PD-L1 Fc fusion as reference)
[18] = target: T1, recombinant human (rh) PD-L1 Fc fusion …; assay: binding ELISA: coated rhPD-L1 Fc fusion, scFv1 in human serum, 4 h at 37 C, detected with Protein L-HRP
Experimental: as §1

IC50 [1]: 0.606 nM
B1: IgG_4 (antibody, V domains shown)
VH: EVQLVESGGGVVRPGGSLRLSCAASGFTFDDYGMTWVRQAPGRGLEWVSGIHWHGKRTGYADSVKGRFTISRDNAKKSLYLQMNSLKGEDTALYHCVRGGMSTGDWFDPWGQGTLVIVSS
VL: DIQMTQSPSSLSASLGDRVTITCRASQSINSYLNWYQQKPGKAPKLLIYVASSLQSGVPSRFSGSGSGTEFTLTISNLQPEDFATYYCQQSYSTPPITFGQGTRLEIKR
notes: Produced in CHO K1 cells; also called H2M8314N as described in WO2015/112805A1

binding result [4]: no binding
EC50 (read off the curve) [5]: ~7 ng/mL
IC50 (read off the curve) [6]: 10 to 20 nM
Kd [7]: 0.0033 nM
binding result [8]: no binding (tested: 5 mcg/mL)
binding result [9]: no binding (tested: 5 mcg/mL)
binding result [10]: no binding (tested: 5 mcg/mL)
EC50 (read off the curve) [11]: ~7 ng/mL
Kd [12]: 0.0128 nM
Kd [13]: 0.0088 nM
IC50 (read off the curve) [14]: ~1 nM
EC50 (read off the curve) [15]: ~7 ng/mL
IC50, PD-1/PD-L1 blockade assay (luciferase, PD-L1 CHO cells and PD-1 Jurkat cells) [16]: 0.75 nM and 0.874 nM
fold tighter affinity than to human PD-L1 [17]: 2.7 fold
EC50 (read off the curve) [18]: ~7 ng/mL
B3: scFv1 (scFv)
scFv: EIVMTQSPSTLSASVGDRVIITCQASEDIYSLLAWYQQKPGKAPKLLIYDASDLASGVPSRFSGSGSGAEFTLTISSLQPDDFATYYCQGNYGSSSSSSYGAVFGQGTKLTVLGGGGGSGGGGSGGGGSGGGGSEVQLVESGGGLVQPGGSLRLSCTVSGIDLSSYTMGWVRQAPGKGLEWVGIISSGGRTYYASWAKGRFTISRDTSKNTVYLQMNSLRAEDTAVYYCARGRYTGYPYYFALWGQGTLVTVSS
notes: also called E. coli cell expressed scFv1

The next lines start with the binder.

B2: IgG_1 (antibody, V domains shown)
VH: EVQLVESGGGLVQPGGSLRLSCTVSGIDLSSYTMGWVRQAPGKGLEWVGIISSGGRTYYASWAKGRFTISRDTSKNTVYLQMNSLRAEDTAVYYCARGRYTGYPYYFALWGQGTLVTVSS
VL: EIVMTQSPSTLSASVGDRVIITCQASEDIYSLLAWYQQKPGKAPKLLIYDASDLASGVPSRFSGSGSGAEFTLTISSLQPDDFATYYCQGNYGSSSSSSYGAVFGQGTKLEIKR
notes: Produced in CHO K1 cells; also called scFv1 converted into IgG format
IC50 [1]: 0.327 nM
fold tighter affinity than scFv1 to PD-L1 [2]: ~3 fold
Kd [3]: 0.00277 nM

B4: CHO cell expressed scFv1 (scFv)
scFv: B3 scFv
IC50, PD-1/PD-L1 blockade assay (luciferase, PD-L1 CHO cells and PD-1 Jurkat cells) [16]: 0.602 nM
